Key:
[1] = target: T1, FGIF|YLNG (Table 1 substrate sequence)
T1 chain: FGIFYLNG

[2] = target: T2, GLY|FRYE (Table 1 substrate sequence)
T2 chain: GLYFRYE

[3] = target: T3, HMIA|LYWG (Table 1 substrate sequence)
T3 chain: HMIALYWG

[4] = target: T4, IKIL|MFYW (Table 1 substrate sequence)
T4 chain: IKILMFYW

[5] = target: T5, cathepsin E selective internally quenched fluorescent substrate AGFSL|PA
T5 chain: AGFSLPA

[6] = target: T6, DEGW|ALQH (Table 1 substrate sequence)
T6 chain: DEGWALQH

[7] = target: T7, NMKW|TRVL (Table 1 substrate sequence)
T7 chain: NMKWTRVL

[8] = target: T8, PWTW|YGVK (Table 1 substrate sequence)
T8 chain: PWTWYGVK

[9] = target: T9, VGKW|SYRM (Table 1 substrate sequence)
T9 chain: VGKWSYRM

[10] = target: T10, gastricsin selective internally quenched fluorescent substrate DEGW^ALQH
T10 chain: DEGWALQH

B1: recombinant cathepsin E (R&D Systems, 1294-AS) (protein)
chain: IQFTESCSMDQSAKEPLINYLDMEYFGTISIGSPPQNFTVIFDTGSSNLWVPSVYCTSPACKTHSRFQPSQSSTYSQPGQSFSIQYGTGSLSGIIGADQVSVEGLTVVGQQFGESVTEPGQTFVDAEFDGILGLGYPSLAVGGVTPVFDNMMAQNLVDLPMFSVYMSSNPEGGAGSELIFGGYDHSHFSGSLNWVPVTKQAYWQIALDNIQVGGTVMFCSEGCQAIVDTGTSLITGPSDKIKQLQNAIGAAPVDGEYAVECANLNVMPDVTFTINGVPYTLSPTAYTLLDFVDGMQFCSSGFQGLDIHPPAGPLWILGDVFIRQFYSVFDRGNNRVGLAPAVP
- Relative Cleavage [1]: 0.88
- Total Cleavage [1]: 22
- Relative Cleavage [2]: 1
- Total Cleavage [2]: 25
- Relative Cleavage [3]: 0.4
- Total Cleavage [3]: 10
- Relative Cleavage [4]: 0.68
- Total Cleavage [4]: 17
- selectivity of fluorescent substrate cleavage (initial velocity) for cathepsin E over cathepsin D [5]: more than 100-fold selective for cathepsin E over both cathepsin D and gastricsin
- selectivity of fluorescent substrate cleavage (initial velocity) for cathepsin E over gastricsin [5]: more than 100-fold selective for cathepsin E over both cathepsin D and gastricsin

B2: recombinant gastricsin (R&D Systems, 6186-AS) (protein)
chain: SVTYEPMAYMDAAYFGEISIGTPPQNFLVLFDTGSSNLWVPSVYCQSQACTSHSRFNPSESSTYSTNGQTFSLQYGSGSLTGFFGYDTLTVQSIQVPNQEFGLSENEPGTNFVYAQFDGIMGLAYPALSVDEATTAMQGMVQEGALTSPVFSVYLSNQQGSSGGAVVFGGVDSSLYTGQIYWAPVTQELYWQIGIEEFLIGGQASGWCSEGCQAIVDTGTSLLTVPQQYMSALLQATGAQEDEYGQFLVNCNSIQNLPSLTFIINGVEFPLPPSSYILSNNGYCTVGVEPTYLSSQNGQPLWILGDVFLRSYYSVYDLGNNRVGFATAA
- Relative Cleavage [6]: 0.47
- Total Cleavage [6]: 30
- Relative Cleavage [7]: 0.33
- Total Cleavage [7]: 21
- Relative Cleavage [8]: 1
- Total Cleavage [8]: 64
- Relative Cleavage [9]: 0.34
- Total Cleavage [9]: 22
- kcat/Km (M-1/s-1) [10]: 480000 M-1/s-1
- selectivity of fluorescent substrate cleavage (initial velocity) for gastricsin over cathepsin D [10]: greater than 120-fold selective for gastricsin over both cathepsins D and E
- selectivity of fluorescent substrate cleavage (initial velocity) for gastricsin over cathepsin E [10]: greater than 120-fold selective for gastricsin over both cathepsins D and E
